Results as given in patent publication US20260242735A1 (UNIVERSIT T BASEL, published 2026).

What was measured:
Assay in all cases: flow cytometry on HEK293-T, alanine scan
human CD33 R109A = human CD33 R109A (human, UniProt P20138 18-364)
Protocol: (§1) An alanine scan on human CD33 was performed to the determine the residues on CD33 that are involved in binding to the antibodies investigated. […] Briefly, a mutation library of CD33 was created by high-throughput, site-directed mutagenesis. Each residue was individually mutated to alanine, with alanine codons mutated to serine. The mutant library was arrayed in 384-well microplates and transiently transfected into HEK293-T. Following transfection, cells were incubated with the indicated antibodies (IgG or Fab) at concentrations pre-determined using an independent immunofluorescence titration curve on wild type CD33. […] Binding of each antibody to each mutant clone was determined in duplicates. For each point, background fluorescence was subtracted from the raw data, which were then normalized to antibody reactivity with wild type CD33.
(§2) Critical residues for antibody binding (outlined in dark grey) were residues whose mutations led to a binding of the test Abs of less than 20%. Additional secondary residues (outlined in light grey) were identified that led to a binding of the test Abs of between 20 and 40% as compared to the wild type CD33.

human CD33 S115A = human CD33 S115A (human, UniProt P20138 18-364)
Protocol: as §1, §2

human CD33 Y127A = human CD33 Y127A (human, UniProt P20138 18-364)
Protocol: as §1, §2

human CD33 N100A = human CD33 N100A (human, UniProt P20138 18-364)
Protocol: as §1, §2

human CD33 D112A = human CD33 D112A (human, UniProt P20138 18-364)
human CD33 D112A, sequence (P20138 18-364 D112A limits assumed): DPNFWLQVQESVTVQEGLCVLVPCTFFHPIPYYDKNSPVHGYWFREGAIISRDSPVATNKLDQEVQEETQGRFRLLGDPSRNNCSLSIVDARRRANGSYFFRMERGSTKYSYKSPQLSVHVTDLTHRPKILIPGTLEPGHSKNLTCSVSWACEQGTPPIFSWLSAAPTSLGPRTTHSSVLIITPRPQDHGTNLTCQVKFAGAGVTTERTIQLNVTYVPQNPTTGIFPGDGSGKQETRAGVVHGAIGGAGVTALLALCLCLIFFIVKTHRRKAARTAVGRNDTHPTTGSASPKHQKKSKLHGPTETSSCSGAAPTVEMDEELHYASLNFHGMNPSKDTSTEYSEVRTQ
Protocol: as §1, §2

human CD33 R144A = human CD33 R144A (human, UniProt P20138 18-364)
human CD33 R144A, sequence (P20138 18-364 R144A limits assumed): as the sequence (P20138 18-364 D112A limits assumed) above, with A95D, R127A counted along it
Protocol: as §1, §2

human CD33 L141A = human CD33 L141A (human, UniProt P20138 18-364)
Protocol: as §1, §2

human CD33 G114A = human CD33 G114A (human, UniProt P20138 18-364)
human CD33 G114A, sequence (P20138 18-364 G114A limits assumed): as the sequence (P20138 18-364 D112A limits assumed) above, with A95D, G97A counted along it
Protocol: as §1, §2

human CD33 T139A = human CD33 T139A (human, UniProt P20138 18-364)
Protocol: as §1, §2

human CD33 D140A = human CD33 D140A (human, UniProt P20138 18-364)
Protocol: as §1, §2

human CD33 V106A = human CD33 V106A (human, UniProt P20138 18-364)
Protocol: as §1, §2

human CD33 P96A = human CD33 P96A (human, UniProt P20138 18-364)
human CD33 P96A, sequence (P20138 18-364 P96A limits assumed): as the sequence (P20138 18-364 D112A limits assumed) above, with P79A, A95D counted along it
Protocol: as §1, §2

human CD33 W167A = human CD33 W167A (human, UniProt P20138 18-364)
Protocol: as §1, §2

human CD33 K130A = human CD33 K130A (human, UniProt P20138 18-364)
human CD33 K130A, sequence (P20138 18-364 K130A limits assumed): as the sequence (P20138 18-364 D112A limits assumed) above, with A95D, K113A counted along it
Protocol: as §1, §2

human CD33 S158A = human CD33 S158A (human, UniProt P20138 18-364)
Protocol: as §1, §2

human CD33 E154A = human CD33 E154A (human, UniProt P20138 18-364)
Protocol: as §1, §2

human CD33 S166A = human CD33 S166A (human, UniProt P20138 18-364)
Protocol: as §1, §2

human CD33 P145A = human CD33 P145A (human, UniProt P20138 18-364)
human CD33 P145A, sequence (P20138 18-364 P145A limits assumed): as the sequence (P20138 18-364 D112A limits assumed) above, with A95D, P128A counted along it
Protocol: as §1, §2

human CD33 N160A = human CD33 N160A (human, UniProt P20138 18-364)
Protocol: as §1, §2

human CD33 S102A = human CD33 S102A (human, UniProt P20138 18-364)
Protocol: as §1, §2

human CD33 V138A = human CD33 V138A (human, UniProt P20138 18-364)
Protocol: as §1, §2

human CD33 I149A = human CD33 I149A (human, UniProt P20138 18-364)
Protocol: as §1, §2

human CD33 P155A = human CD33 P155A (human, UniProt P20138 18-364)
Protocol: as §1, §2

human CD33 G151A = human CD33 G151A (human, UniProt P20138 18-364)
human CD33 G151A, sequence (P20138 18-364 G151A limits assumed): as the sequence (P20138 18-364 D112A limits assumed) above, with A95D, G134A counted along it
Protocol: as §1, §2

human CD33 F118A = human CD33 F118A (human, UniProt P20138 18-364)
Protocol: as §1, §2

human CD33 S124A = human CD33 S124A (human, UniProt P20138 18-364)
Protocol: as §1, §2

human CD33 L153A = human CD33 L153A (human, UniProt P20138 18-364)
human CD33 L153A, sequence (P20138 18-364 L153A limits assumed): as the sequence (P20138 18-364 D112A limits assumed) above, with A95D, L136A counted along it
Protocol: as §1, §2

human CD33 V165A = human CD33 V165A (human, UniProt P20138 18-364)
human CD33 V165A, sequence (P20138 18-364 V165A limits assumed): as the sequence (P20138 18-364 D112A limits assumed) above, with A95D, V148A counted along it
Protocol: as §1, §2

human CD33 K159A = human CD33 K159A (human, UniProt P20138 18-364)
Protocol: as §1, §2

human CD33 R122A = human CD33 R122A (human, UniProt P20138 18-364)
Protocol: as §1, §2

human CD33 R119A = human CD33 R119A (human, UniProt P20138 18-364)
human CD33 R119A, sequence (P20138 18-364 R119A limits assumed): as the sequence (P20138 18-364 D112A limits assumed) above, with A95D, R102A counted along it
Protocol: as §1, §2

human CD33 S164A = human CD33 S164A (human, UniProt P20138 18-364)
Protocol: as §1, §2

human CD33 N99A = human CD33 N99A (human, UniProt P20138 18-364)
human CD33 N99A, sequence (P20138 18-364 N99A limits assumed): as the sequence (P20138 18-364 D112A limits assumed) above, with N82A, A95D counted along it
Protocol: as §1, §2

human CD33 P132A = human CD33 P132A (human, UniProt P20138 18-364)
human CD33 P132A, sequence (P20138 18-364 P132A limits assumed): as the sequence (P20138 18-364 D112A limits assumed) above, with A95D, P115A counted along it
Protocol: as §1, §2

human CD33 R98A = human CD33 R98A (human, UniProt P20138 18-364)
human CD33 R98A, sequence (P20138 18-364 R98A limits assumed): as the sequence (P20138 18-364 D112A limits assumed) above, with R81A, A95D counted along it
Protocol: as §1, §2

human CD33 Q133A = human CD33 Q133A (human, UniProt P20138 18-364)
Protocol: as §1, §2

human CD33 S115A, sequence (P20138 18-364 S115A limits assumed): as the sequence (P20138 18-364 D112A limits assumed) above, with A95D, S98A counted along it

B1: Refmab #3 (antibody, V domains shown)
VH: QVQLVQSGAEVKKPGSSVKVSCKASGYTFTDYNMHWVRQAPGQGLEWIGYIYPYNGGTGYNQKFKSKATITADESTNTAYMELSSLRSEDTAVYYCARGRPAMDYWGQGTLVTVSS
VL: DIQMTQSPSSLSASVGDRVTITCRASESVDNYGISFMNWFQQKPGKAPKLLIYAASNQGSGVPSRFSGSGSGTDFTLTISSLQPDDFATYYCQQSKEVPWTFGQGTKVEIK
notes: The alanine scan used IgG or Fab
Mean % WT Binding (human CD33 R109A): 112 % WT binding | Mean % WT Binding (human CD33 S115A): 77.2 % WT binding | Mean % WT Binding (human CD33 Y127A): 31.9 % WT binding | Mean % WT Binding (human CD33 N100A): 107 % WT binding | Mean % WT Binding (human CD33 D112A): 77.5 % WT binding | Mean % WT Binding (human CD33 R144A): 112 % WT binding | Mean % WT Binding (human CD33 L141A): 153 % WT binding | Mean % WT Binding (human CD33 G114A): 92.6 % WT binding | Mean % WT Binding (human CD33 T139A): 143 % WT binding | Mean % WT Binding (human CD33 D140A): 119 % WT binding | Mean % WT Binding (human CD33 V106A): 85.7 % WT binding | Mean % WT Binding (human CD33 P96A): 140 % WT binding | Mean % WT Binding (human CD33 W167A): 129 % WT binding | Mean % WT Binding (human CD33 K130A): 152 % WT binding | Mean % WT Binding (human CD33 S158A): 111 % WT binding | Mean % WT Binding (human CD33 E154A): 126 % WT binding | Mean % WT Binding (human CD33 S166A): 131 % WT binding | Mean % WT Binding (human CD33 P145A): 75.2 % WT binding | Mean % WT Binding (human CD33 N160A): 99.3 % WT binding | Mean % WT Binding (human CD33 S102A): 75.9 % WT binding | Mean % WT Binding (human CD33 V138A): 129 % WT binding | Mean % WT Binding (human CD33 I149A): 101 % WT binding | Mean % WT Binding (human CD33 P155A): 114 % WT binding | Mean % WT Binding (human CD33 G151A): 108 % WT binding | Mean % WT Binding (human CD33 F118A): 8.2 % WT binding | Mean % WT Binding (human CD33 S124A): 274 % WT binding | Mean % WT Binding (human CD33 L153A): 144 % WT binding | Mean % WT Binding (human CD33 V165A): 116 % WT binding | Mean % WT Binding (human CD33 K159A): 110 % WT binding | Mean % WT Binding (human CD33 R122A): 177 % WT binding | Mean % WT Binding (human CD33 R119A): 1020 % WT binding | Mean % WT Binding (human CD33 S164A): 96.3 % WT binding | Mean % WT Binding (human CD33 N99A): 98.6 % WT binding | Mean % WT Binding (human CD33 P132A): 74.5 % WT binding | Mean % WT Binding (human CD33 R98A): 102 % WT binding | Mean % WT Binding (human CD33 Q133A): 101 % WT binding
